Data published in PMC5079630 (2016).

T1: STAT1 N domain (aminoterminal domain), recombinant
T1 chain: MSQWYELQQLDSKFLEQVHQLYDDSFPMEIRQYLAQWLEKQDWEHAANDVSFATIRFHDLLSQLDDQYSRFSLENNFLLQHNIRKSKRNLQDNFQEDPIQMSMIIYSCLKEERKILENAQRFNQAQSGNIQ

B1: STAT1 N domain (aminoterminal domain), recombinant (domain or fragment)
chain: T1 chain
modifications: limits not printed (S1 Text/ref. 22); N domain taken up to the start of the conventional STAT1 core fragment (132-713); Strep-tag omitted limits not given; N domain taken up to the start of the core region (P52630 region from 138), homologous to STAT1 1-131; mEGFP and Strep-tag omitted
B2: STAT2 N domain (aminoterminal domain), recombinant, mEGFP-tagged (domain or fragment)
chain: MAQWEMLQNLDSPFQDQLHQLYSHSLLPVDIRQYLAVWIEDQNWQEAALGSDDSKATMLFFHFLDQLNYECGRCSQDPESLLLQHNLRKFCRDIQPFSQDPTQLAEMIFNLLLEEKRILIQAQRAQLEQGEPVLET
modifications: limits not given; N domain taken up to the start of the core region (P52630 region from 138), homologous to STAT1 1-131; mEGFP and Strep-tag omitted limits not given; N domain taken up to the start of the core region (P52630 region from 138), homologous to STAT1 1-131; mEGFP and Strep-tag omitted
B3: STAT1 N domain (aminoterminal domain), recombinant (domain or fragment)
chain: T1 chain
modifications: limits not printed (S1 Text/ref. 22); N domain taken up to the start of the conventional STAT1 core fragment (132-713); Strep-tag omitted limits not printed (S1 Text/ref. 22); N domain taken up to the start of the conventional STAT1 core fragment (132-713); Strep-tag omitted
B4: STAT1 N domain (aminoterminal domain), recombinant (domain or fragment)
chain: T1 chain
modifications: limits not printed (S1 Text/ref. 22); N domain taken up to the start of the conventional STAT1 core fragment (132-713); Strep-tag omitted limits not given; same convention as m2; tags omitted

How the values were obtained:
Assay in all cases: AUC
[1] = biological target: STAT2 N domain (aminoterminal domain), recombinant, mEGFP-tagged (human)
[2] = biological target: T1, STAT1 N domain (aminoterminal domain), …
[3] = biological target: STAT2 N domain LL81,82AA, recombinant (human)
STAT2 N domain LL81,82AA, recombinant (human), sequence (chain, as listed by the source): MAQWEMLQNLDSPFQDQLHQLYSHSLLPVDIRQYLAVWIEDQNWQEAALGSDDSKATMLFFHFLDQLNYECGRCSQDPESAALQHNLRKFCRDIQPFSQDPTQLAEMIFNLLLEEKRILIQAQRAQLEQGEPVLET

STAT2 N domain (aminoterminal domain), recombinant, mEGFP-tagged (human), sequence (chain, as listed by the source): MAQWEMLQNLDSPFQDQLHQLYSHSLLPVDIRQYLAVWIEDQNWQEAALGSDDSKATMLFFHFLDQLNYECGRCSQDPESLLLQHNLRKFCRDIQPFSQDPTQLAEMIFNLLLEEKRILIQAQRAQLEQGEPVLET

Binder	Kd [1]	also measured
B1	< 0.01 µM	–
B2	705 µM	–
B3	–	Kd [2]: 16.6 µM
B4	–	Kd [3]: 5500 µM
